Reference: IntAct's records for PubMed 20571511

B1: Telomere length regulation protein ELG1 (Saccharomyces cerevisiae), Q12050 (parent)
chain: MKRHVSLSDILTGNKRKVRRQDALQITIDDENDTESGTFDARTAKHDDSSVIFLNHSVVKPIEAVSTNHKSAKEFLMTKRTKEKCDDDDDDLIVISDKSPKSETNCSKIALSQEHEDDISIISTSRIKSSLLNERASKIKNFLKHETTDTFKRLNSISKLNEIEPPLPLHQSIFPVGDKELSDRSVDIPLPFRTIPPLNHNFLPSDYESLKDKNSASCIPVRYQAPVLLGTNIKRNTTLTWPQLFKPVTLKQVLIEPKLKLRIKNWIETSFHTLEKPTLRNRLLNRINPNKQQGSGDELANFIVPDLEEDENLRPDFYRNGEANSSLSEFVPLMILHGNSIGKKTLIQTIMREIAGDDNSYQIYEVNSNMNRSKKDLLDILLDFTTTHYVKDSSKRKSDYGLVLFNDVDVLFKEHDRGYWAMISKLCEFSRRPLVLTCKDLSLVPSELIALASEQNSLFHTKKISTSTVYAFLTKYLKSLEIEVCDDWLRDVVKQNNADIRKCLMHLQFWCVDTEADLISSKNRLPVLTSTLGSSVKDISQLTDLLSINDVIGQATLNRSMVRQEIDSTTMTPEKVNTFQDQNLDDEMKLKFDYVIDYKLHLNDPNRQPLLPFELNIYQHIQEQLEARYSYVREANHRLDNEYLVNRFKKMTESTLNFLASRIPKYDHLQSARRTRNSKKISDILNQFKGIYNDETLNENAEIDLLSATTQQIKAEINPFVFEIAKSDANVKNENKQIFELHSENVSERRYKDLVYQLSQEGVLKNVWFNADPSIVVRKWEHLHSGFSKNK
B2: Proliferating cell nuclear antigen (Saccharomyces cerevisiae), P15873 (parent)
chain: MLEAKFEEASLFKRIIDGFKDCVQLVNFQCKEDGIIAQAVDDSRVLLVSLEIGVEAFQEYRCDHPVTLGMDLTSLSKILRCGNNTDTLTLIADNTPDSIILLFEDTKKDRIAEYSLKLMDIDADFLKIEELQYDSTLSLPSSEFSKIVRDLSQLSDSINIMITKETIKFVADGDIGSGSVIIKPFVDMEHPETSIKLEMDQPVDLTFGAKYLLDIIKGSSLSDRVGIRLSSEAPALFQFDLKSGFLQFFLAPKFNDEE
partner: B1 chain

Variants of: B1
Details: with pcna_yeast POL30, P15873

Row | effect of a mutation on the interaction | Variant
1 | decreasing interaction | V58A
2 | decreasing interaction | S57A

Variants of: B1
Details: with pcna_yeast POL30, P15873
Remark: another data set of the same source

Row | effect of a mutation on the interaction | Variant
3 | disrupting interaction | I122A
4 | disrupting interaction | I121A
5 | disrupting interaction | I28A
6 | disrupting interaction | I93K

Variants of: B1
Details: with smt3_yeast SMT3, Q12306
Chain of smt3_yeast SMT3, Q12306 (Q12306 whole entry): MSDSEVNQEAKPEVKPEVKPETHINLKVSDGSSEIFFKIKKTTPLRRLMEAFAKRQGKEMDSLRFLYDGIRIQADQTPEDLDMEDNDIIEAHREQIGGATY

Row | effect of a mutation on the interaction | Variant
7 | decreasing interaction | I122A
8 | decreasing interaction | I121A
9 | decreasing interaction | I28A
10 | decreasing interaction | I93K

Variants of: B1
Details: with smt3_yeast SMT3, Q12306
Remark: another data set of the same source

Row | effect of a mutation on the interaction | Variant
11 | disrupting interaction | I122A
12 | disrupting interaction | I121A
13 | disrupting interaction | I28A
14 | disrupting interaction | I93K

Variants of: B1
Details: with pcna_yeast POL30, P15873
Remark: another data set of the same source

Row | effect of a mutation on the interaction | Variant
15 | decreasing interaction | V59A

Variants of: B2
Details: with elg1_yeast ELG1, Q12050

Row | effect of a mutation on the interaction | Variant
16 | decreasing interaction | K164R
